Reference: the supplement of paper PMC5998384

Tested on: HeLa Kyoto
Assay: thermal stability score vs G1/S (z-score of summed log2 fold changes over temperatures); higher = more thermally stable than in G1/S
[1] = cell cycle stage: early G1 (4.5 h after nocodazole release)
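Further: synchronized HeLa Kyoto cells, proteins quantified by TMT10plex mass spectrometry, three biological replicates, mitosis taken 0.5 h after nocodazole release, G1/S directly after double thymidine block.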

Sequence of PDK1 (chain, as listed by the source): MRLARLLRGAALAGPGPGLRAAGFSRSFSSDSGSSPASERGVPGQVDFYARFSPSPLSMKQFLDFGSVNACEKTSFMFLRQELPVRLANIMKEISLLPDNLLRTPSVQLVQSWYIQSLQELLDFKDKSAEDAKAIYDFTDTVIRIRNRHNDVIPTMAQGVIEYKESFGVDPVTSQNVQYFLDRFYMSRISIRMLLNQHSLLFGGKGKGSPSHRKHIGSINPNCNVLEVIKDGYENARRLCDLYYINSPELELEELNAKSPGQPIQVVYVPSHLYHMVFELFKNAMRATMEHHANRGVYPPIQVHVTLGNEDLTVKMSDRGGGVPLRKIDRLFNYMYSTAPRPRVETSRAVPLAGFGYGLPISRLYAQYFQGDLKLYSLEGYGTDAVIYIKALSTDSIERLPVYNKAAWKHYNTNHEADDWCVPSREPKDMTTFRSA

Substance	thermal stability score [1]	thermal stability score (cell cycle stage: mitosis)
MAPLRPLLILALLAWVALADQESCKGRCTEGFNVDKKCQCDELCSYYQSCCTDYTAECKPQVTRGDVFTMPEDEYTVYDDGEEKNNATVHEQVGGPSLTSDLQAQSKGNPEQTPVLKPEEEAPAPEVGASKPEGIDSRPETLHPGRPQPPAEEELCSGKPFDAFTDLKNGSLFAFRGQYCYELDEKAVRPGYPKLIRDVWGIEGPIDAAFTRINCQGKTYLFKGSQYWRFEDGVLDPDYPRNISDGFDGIPDNVDAALALPAHSYSGRERVYFFKGKQYWEYQFQHQPSQEECEGSSLSAVFEHFAMMQRDSWEDIFELLFWGRTSAGTRQPQFISRDWHGVPGQVDAAMAGRIYISGMAPRPSLAKKQRFRHRNRKGYRSQRGHSRGRNQNSRRPSRATWLSLFSSEESNLGANNYDDYRMDWLVPATCEPIQSVFFFSGDKYYRVNLRTRRVDTVDPPYPRSIAQYWLGCPAPGHL [VTN]	2.31	-1.24
MAEQVLPQALYLSNMRKAVKIRERTPEDIFKPTNGIIHHFKTMHRYTLEMFRTCQFCPQFREIIHKALIDRNIQATLESQKKLNWCREVRKLVALKTNGDGNCLMHATSQYMWGVQDTDLVLRKALFSTLKETDTRNFKFRWQLESLKSQEFVETGLCYDTRNWNDEWDNLIKMASTDTPMARSGLQYNSLEEIHIFVLCNILRRPIIVISDKMLRSLESGSNFAPLKVGGIYLPLHWPAQECYRYPIVLGYDSHHFVPLVTLKDSGPEIRAVPLVNRDRGRFEDLKVHFLTDPENEMKEKLLKEYLMVIEIPVQGWDHGTTHLINAAKLDEANLPKEINLVDDYFELVQHEYKKWQENSEQGRREGHAQNPMEPSVPQLSLMDVKCETPNCPFFMSVNTQPLCHECSERRQKNQNKLPKLNSKPGPEGLPGMALGASRGEAYEPLAWNPEESTGGPHSAPPTAPSPFLFSETTAMKCRSPGCPFTLNVQHNGFCERCHNARQLHASHAPDHTRHLDPGKCQACLQDVTRTFNGICSTCFKRTTAEASSSLSTSLPPSCHQRSKSDPSRLVRSPSPHSCHRAGNDAPAGCLSQAARTPGDRTGTSKCRKAGCVYFGTPENKGFCTLCFIEYRENKHFAAASGKVSPTASRFQNTIPCLGRECGTLGSTMFEGYCQKCFIEAQNQRFHEAKRTEEQLRSSQRRDVPRTTQSTSRPKCARASCKNILACRSEELCMECQHPNQRMGPGAHRGEPAPEDPPKQRCRAPACDHFGNAKCNGYCNECFQFKQMYG [TNFAIP3]	0.262	-0.606
MIEVVAELSRGPVFLAGEALECVVTVTNPLPPTATSASSEALAWASAQIHCQFHASESRVALPPPDSSQPDVQPDSQTVFLPHRGERGQCILSTPPKILFCDLRLDPGESKSYSYSEVLPIEGPPSFRGQSVKYVYKLTIGCQRVNSPITLLRVPLRVLVLTGLQDVRFPQDEAVAPSSPFLEEDEGGKKDSWLAELAGERLMAATSCRSLHLYNISDGRGKVGTFGIFKSVYRLGEDVVGTLNLGEGTVACLQFSVSLQTEERVQPEYQRRRGAGGVPSVSHVTHARHQESCLHTTRTSFSLPIPLSSTPGFCTAIVSLKWRLHFEFVTSREPGLVLLPPVEQPEPTTWTGPEQVPVDTFSWDLPIKVLPTSPTLASYAAPGPSTSTITI [RGP1]	0.0205	-1.18
MAALEKMTFPKKMTFPEKPSHKKYRAALKKEKRKKRRQELARLRDSGLSQEEEEDTFIEEQQLEEEKLLERERERLHEEWLLREQKAQEEFRIKKEKEEAAKKWLEEQERKLKEQWKEQQRKEREEEEQKQQEKKEKEEAVQKMLDQAENDLENSTTWQNPEPPVDFRVMEKDRANCPFYSKTGACRFGDRCSRKHNFPTSSPTLLIKSMFTTFGMEQCRRDDYDPDASLEYSEEETYQQFLDFYEDVLPEFKNVGKVIQFKVSCNLEPHLRGNVYVQYQSEEECQAALSLFNGRWYAGRQLQCEFCPVTRWKMAICGLFEIQQCPRGKHCNFLHVFRNPNNEFWEANRDIYLSSDQTGSSFGKNSERREKMGHHDHYYSRQRGRRNPSPDHTYKRNGESERKKSSHRGKKSHKRTSKSRERHNSPSRGRNRHRSWDQGRRSQSRRSHRSRSQSSSRCRSRGRRKSGNRDRTVQSPQSK [ZRSR1]	1.06e-17	1.37e-17
MSSGNAKIGHPAPNFKATAVMPDGQFKDISLSDYKGKYVVFFFYPLDFTFVCPTEIIAFSDRAEEFKKLNCQVIGASVDSHFCHLAWVNTPKKQGGLGPMNIPLVSDPKRTIAQDYGVLKADEGISFRGLFIIDDKGILRQITVNDLPVGRSVDETLRLVQAFQFTDKHGEVCPAGWKPGSDTIKPDVQKSKEYFSKQK [PRDX1]	-0.285	-1.31
MSLVPATNYIYTPLNQLKGGTIVNVYGVVKFFKPPYLSKGTDYCSVVTIVDQTNVKLTCLLFSGNYEALPIIYKNGDIVRFHRLKIQVYKKETQGITSSGFASLTFEGTLGAPIIPRTSSKYFNFTTEDHKMVEALRVWASTHMSPSWTLLKLCDVQPMQYFDLTCQLLGKAEVDGASFLLKVWDGTRTPFPSWRVLIQDLVLEGDLSHIHRLQNLTIDILVYDNHVHVARSLKVGSFLRIYSLHTKLQSMNSENQTMLSLEFHLHGGTSYGRGIRVLPESNSDVDQLKKDLESANLTANQHSDVICQSEPDDSFPSSGSVSLYEVERCQQLSATILTDHQYLERTPLCAILKQKAPQQYRIRAKLRSYKPRRLFQSVKLHCPKCHLLQEVPHEGDLDIIFQDGATKTPDVKLQNTSLYDSKIWTTKNQKGRKVAVHFVKNNGILPLSNECLLLIEGGTLSEICKLSNKFNSVIPVRSGHEDLELLDLSAPFLIQGTIHHYGCKQCSSLRSIQNLNSLVDKTSWIPSSVAEALGIVPLQYVFVMTFTLDDGTGVLEAYLMDSDKFFQIPASEVLMDDDLQKSVDMIMDMFCPPGIKIDAYPWLECFIKSYNVTNGTDNQICYQIFDTTVAEDVI [POT1]	0.878	1.25
MAAGLRKRGRSGSAAQAEGLCKQWLQRAWQERRLLLREPRYTLLVAACLCLAEVGITFWVIHRVAYTEIDWKAYMAEVEGVINGTYDYTQLQGDTGPLVYPAGFVYIFMGLYYATSRGTDIRMAQNIFAVLYLATLLLVFLIYHQTCKVPPFVFFFMCCASYRVHSIFVLRLFNDPVAMVLLFLSINLLLAQRWGWGCCFFSLAVSVKMNVLLFAPGLLFLLLTQFGFRGALPKLGICAGLQVVLGLPFLLENPSGYLSRSFDLGRQFLFHWTVNWRFLPEALFLHRAFHLALLTAHLTLLLLFALCRWHRTGESILSLLRDPSKRKVPPQPLTPNQIVSTLFTSNFIGICFSRSLHYQFYVWYFHTLPYLLWAMPARWLTHLLRLLVLGLIELSWNTYPSTSCSSAALHICHAVILLQLWLGPQPFPKSTQHSKKAH [ALG3]	1.41	2.38
PDK1	-0.202	0.796
MDPETRGQEIIKVTPLQQMLASCTGAILTSVIVTPLDVVKIRLQAQNNPLPKGKCFVYSNGLMDHLCVCEEGGNKLWYKKPGNFQGTLDAFFKIIRNEGIKSLWSGLPPTLVMAVPATVIYFTCYDQLSALLRSKLGENETCIPIVAGIVARFGAVTVISPLELIRTKMQSKKFSYVELHRFVSKKVSEDGWISLWRGWAPTVLRDVPFSAMYWYNYEILKKWLCEKSGLYEPTFMINFTSGALSGSFAAVATLPFDVVKTQKQTQLWTYESHKISMPLHMSTWIIMKNIVAKNGFSGLFSGLIPRLIKIAPACAIMISTYEFGKAFFQKQNVRRQQY [SLC25A40]	-1.32	-2.29
MLIKEYHILLPMSLDEYQVAQLYMIQKKSREESSGEGSGVEILANRPYTDGPGGSGQYTHKVYHVGSHIPGWFRALLPKAALQVEEESWNAYPYTRTRYTCPFVEKFSIEIETYYLPDGGQQPNVFNLSGAERRQRILDTIDIVRDAVAPGEYKAEEDPRLYHSVKTGRGPLSDDWARTAAQTGPLMCAYKLCKVEFRYWGMQAKIEQFIHDVGLRRVMLRAHRQAWCWQDEWTELSMADIRALEEETARMLAQRMAKCNTGSEGSEAQPPGKPSTEARSAASNTGTPDGPEAPPGPDASPDASFGKQWSSSSRSSYSSQHGGAVSPQSLSEWRMQNIARDSENSSEEEFFDAHEGFSDSEEVFPKEMTKWNSNDFIDAFASPVEAEGTPEPGAEAAKGIEDGAQAPRDSEGLDGAGELGAEACAVHALFLILHSGNILDSGPGDANSKQADVQTLSSAFEAVTRIHFPEALGHVALRLVPCPPICAAAYALVSNLSPYSHDGDSLSRSQDHIPLAALPLLATSSSRYQGAVATVIARTNQAYSAFLRSPEGAGFCGQVALIGDGVGGILGFDALCHSANAGTGSRGSSRRGSMNNELLSPEFGPVRDPLADGVEGLGRGSPEPSALPPQRIPSDMASPEPEGSQNSLQAAPATTSSWEPRRASTAFCPPAASSEAPDGPSSTARLDFKVSGFFLFGSPLGLVLALRKTVMPALEAAQMRPACEQIYNLFHAADPCASRLEPLLAPKFQAIAPLTVPRYQKFPLGDGSSLLLADTLQTHSSLFLEELEMLVPSTPTSTSGAFWKGSELATDPPAQPAAPSTTSEVVKILERWWGTKRIDYSLYCPEALTAFPTVTLPHLFHASYWESADVVAFILRQVIEKERPQLAECEEPSIYSPAFPREKWQRKRTQVKIRNVTSNHRASDTVVCEGRPQVLSGRFMYGPLDVVTLTGEKVDVYIMTQPLSGKWIHFGTEVTNSSGRLTFPVPPERALGIGVYPVRMVVRGDHTYAECCLTVVARGTEAVVFSIDGSFTASVSIMGSDPKVRAGAVDVVRHWQDSGYLIVYVTGRPDMQKHRVVAWLSQHNFPHGVVSFCDGLTHDPLRQKAMFLQSLVQEVELNIVAGYGSPKDVAVYAALGLSPSQTYIVGRAVRKLQAQCQFLSDGYVAHLGQLEAGSHSHASSGPPRAALGKSSYGVAAPVDFLRKQSQLLRSRGPSQAEREGPGTPPTTLARGKARSISLKLDSEE [PITPNM1]	0.586	0.463
MAGLKRRVPLHSLRYFISMVGLFSKPGLLPWYARNPPGWSQLFLGTVCKGDFTRVIATKCQKGQKSQKKPSHLGPLDGSWQERLADVVTPLWRLSYEEQLKVKFAAQKKILQRLESYIQMLNGVSVTTAVPKSERLSCLLHPIIPSPVINGYRNKSTFSVNRGPDGNPKTVGFYLGTWRDGNVVCVQSNHLKNIPEKHSQVAQYYEVFLRQSPLEPCLVFHEGGYWRELTVRTNSQGHTMAIITFHPQKLSQEELHVQKEIVKEFFIRGPGAACGLTSLYFQESTMTRCSHQQSPYQLLFGEPYIFEELLSLKIRISPDAFFQINTAGAEMLYRTVGELTGVNSDTILLDICCGTGVIGLSLAQHTSRVLGIELLEQAVEDARWTAAFNGITNSEFHTGQAEKILPGLLKSKEDGQSIVAVVNPARAGLHYKVIQAIRNFRAIHTLVFVSCKLHGESTRNVIELCCPPDPAKKLLGEPFVLQQAVPVDLFPHTPHCELVLLFTR [TRMT2B]	0.356	1.27
MSSSLRPGPSRWRRAASIVLAAGWSRPETATPPSRPPPAEGFRLLLLQRSPHQGFMPGAHVFSGGVLDAADRSADWLGLFAPHHGPPRFGLGPAPFSRTAFPSLPDTDDHKTDNTGTLPEDVAFRICAVREAFEEAGVLLLRPRTSPPGPAPGPGLALEPPPGLASWRDRVRQDPRHFLRLCAHLDCTPDIWALHNWSAWLTPFLRGTTRRFDTAFFLCCLREPPPVYPDLAEVVGYQWSSPSEATESFLSKEIWLPPPQFYEVRRLANFASLSDLHKFCLGRALEGLERWLPIILLTADGMVHLLPGDELYLEDSDFLENLMSTEKKTEEIMKEGKQFHRIVTYHRHLYDIHVTVQPKYKHVYPKNSVVRKSHL [NUDT19]	-1.25	-1.33
